# Assay results from patent US20220025010A1 (ANTAG THERAPEUTICS, published 2022).
# *1 amine or outer side, *2 acyl side, *3 side chain or, on linkers, in order; H or OH if unused. Where no end group is shown, it is not given here. Side-chain parts run from the residue outwards. [ ]: non-standard residue; d: D form. The star is where a group is joined. C18 diacid = O=C(O)CCCCCCCCCCCCCCCCC(=O)*; C16 diacid = O=C(O)CCCCCCCCCCCCCCC(=O)*; γGlu = O=C(O)[C@H](CCC(=O)[*:2])N[*:1]; pGlu = O=C1CC[C@@H](C(=O)O)N1; AEEA = NCCOCCOCC(=O)O
# T1: human GIP receptor (human, UniProt P48546 22-466)
# T1 sequence (looked up): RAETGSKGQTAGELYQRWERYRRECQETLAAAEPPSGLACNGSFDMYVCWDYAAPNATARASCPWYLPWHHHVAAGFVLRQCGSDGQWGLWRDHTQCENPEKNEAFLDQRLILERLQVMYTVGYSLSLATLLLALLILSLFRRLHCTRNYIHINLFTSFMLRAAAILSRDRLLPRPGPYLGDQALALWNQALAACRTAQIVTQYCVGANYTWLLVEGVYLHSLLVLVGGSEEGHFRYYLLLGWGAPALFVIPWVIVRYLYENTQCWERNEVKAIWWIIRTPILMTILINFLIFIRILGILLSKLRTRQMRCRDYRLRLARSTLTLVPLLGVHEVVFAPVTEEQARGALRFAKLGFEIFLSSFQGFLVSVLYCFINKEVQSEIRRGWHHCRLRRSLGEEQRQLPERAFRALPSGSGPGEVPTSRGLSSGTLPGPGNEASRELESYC
# B1: AT279 (peptide)
# peptide: PGTFISDYSIAMDRIK([AEEA-AEEA-γGlu-C16 diacid])QQDFVNWLLAQR-OH
# modifications: N-terminus assumed
# SMILES: CC[C@H](C)[C@H](NC(=O)[C@H](CO)NC(=O)[C@H](Cc1ccc(O)cc1)NC(=O)[C@H](CC(=O)O)NC(=O)[C@H](CO)NC(=O)[C@@H](NC(=O)[C@H](Cc1ccccc1)NC(=O)[C@@H](NC(=O)CNC(=O)[C@@H]1CCCN1)[C@@H](C)O)[C@@H](C)CC)C(=O)N[C@@H](C)C(=O)N[C@@H](CCSC)C(=O)N[C@@H](CC(=O)O)C(=O)N[C@@H](CCCNC(=N)N)C(=O)N[C@H](C(=O)N[C@@H](CCCCNC(=O)COCCOCCNC(=O)COCCOCCNC(=O)CC[C@H](NC(=O)CCCCCCCCCCCCCCC(=O)O)C(=O)O)C(=O)N[C@@H](CCC(N)=O)C(=O)N[C@@H](CCC(N)=O)C(=O)N[C@@H](CC(=O)O)C(=O)N[C@@H](Cc1ccccc1)C(=O)N[C@H](C(=O)N[C@@H](CC(N)=O)C(=O)N[C@@H](Cc1c[nH]c2ccccc12)C(=O)N[C@@H](CC(C)C)C(=O)N[C@@H](CC(C)C)C(=O)N[C@@H](C)C(=O)N[C@@H](CCC(N)=O)C(=O)N[C@@H](CCCNC(=N)N)C(=O)O)C(C)C)[C@@H](C)CC
# B2: AT275 (peptide)
# peptide: GGTFISDYSIAMDRIK([AEEA-AEEA-γGlu-C16 diacid])QQDFVNWLLAQR-OH
# modifications: N-terminus assumed
# SMILES: CC[C@H](C)[C@H](NC(=O)[C@H](CO)NC(=O)[C@H](Cc1ccc(O)cc1)NC(=O)[C@H](CC(=O)O)NC(=O)[C@H](CO)NC(=O)[C@@H](NC(=O)[C@H](Cc1ccccc1)NC(=O)[C@@H](NC(=O)CNC(=O)CN)[C@@H](C)O)[C@@H](C)CC)C(=O)N[C@@H](C)C(=O)N[C@@H](CCSC)C(=O)N[C@@H](CC(=O)O)C(=O)N[C@@H](CCCNC(=N)N)C(=O)N[C@H](C(=O)N[C@@H](CCCCNC(=O)COCCOCCNC(=O)COCCOCCNC(=O)CC[C@H](NC(=O)CCCCCCCCCCCCCCC(=O)O)C(=O)O)C(=O)N[C@@H](CCC(N)=O)C(=O)N[C@@H](CCC(N)=O)C(=O)N[C@@H](CC(=O)O)C(=O)N[C@@H](Cc1ccccc1)C(=O)N[C@H](C(=O)N[C@@H](CC(N)=O)C(=O)N[C@@H](Cc1c[nH]c2ccccc12)C(=O)N[C@@H](CC(C)C)C(=O)N[C@@H](CC(C)C)C(=O)N[C@@H](C)C(=O)N[C@@H](CCC(N)=O)C(=O)N[C@@H](CCCNC(=N)N)C(=O)O)C(C)C)[C@@H](C)CC
# B3: AT496 (peptide)
# peptide: GGTFISDYSIAMDRIK(C16 diacid)QQDFVNWLLAQR-NH2
# modifications: N-terminus assumed
# SMILES: CC[C@H](C)[C@H](NC(=O)[C@H](CO)NC(=O)[C@H](Cc1ccc(O)cc1)NC(=O)[C@H](CC(=O)O)NC(=O)[C@H](CO)NC(=O)[C@@H](NC(=O)[C@H](Cc1ccccc1)NC(=O)[C@@H](NC(=O)CNC(=O)CN)[C@@H](C)O)[C@@H](C)CC)C(=O)N[C@@H](C)C(=O)N[C@@H](CCSC)C(=O)N[C@@H](CC(=O)O)C(=O)N[C@@H](CCCNC(=N)N)C(=O)N[C@H](C(=O)N[C@@H](CCCCNC(=O)CCCCCCCCCCCCCCC(=O)O)C(=O)N[C@@H](CCC(N)=O)C(=O)N[C@@H](CCC(N)=O)C(=O)N[C@@H](CC(=O)O)C(=O)N[C@@H](Cc1ccccc1)C(=O)N[C@H](C(=O)N[C@@H](CC(N)=O)C(=O)N[C@@H](Cc1c[nH]c2ccccc12)C(=O)N[C@@H](CC(C)C)C(=O)N[C@@H](CC(C)C)C(=O)N[C@@H](C)C(=O)N[C@@H](CCC(N)=O)C(=O)N[C@@H](CCCNC(=N)N)C(N)=O)C(C)C)[C@@H](C)CC
# B4: AT498 (peptide)
# peptide: SGTFISDYSIAMDRIK(C16 diacid)QQDFVNWLLAQR-NH2
# modifications: N-terminus assumed
# SMILES: CC[C@H](C)[C@H](NC(=O)[C@H](CO)NC(=O)[C@H](Cc1ccc(O)cc1)NC(=O)[C@H](CC(=O)O)NC(=O)[C@H](CO)NC(=O)[C@@H](NC(=O)[C@H](Cc1ccccc1)NC(=O)[C@@H](NC(=O)CNC(=O)[C@@H](N)CO)[C@@H](C)O)[C@@H](C)CC)C(=O)N[C@@H](C)C(=O)N[C@@H](CCSC)C(=O)N[C@@H](CC(=O)O)C(=O)N[C@@H](CCCNC(=N)N)C(=O)N[C@H](C(=O)N[C@@H](CCCCNC(=O)CCCCCCCCCCCCCCC(=O)O)C(=O)N[C@@H](CCC(N)=O)C(=O)N[C@@H](CCC(N)=O)C(=O)N[C@@H](CC(=O)O)C(=O)N[C@@H](Cc1ccccc1)C(=O)N[C@H](C(=O)N[C@@H](CC(N)=O)C(=O)N[C@@H](Cc1c[nH]c2ccccc12)C(=O)N[C@@H](CC(C)C)C(=O)N[C@@H](CC(C)C)C(=O)N[C@@H](C)C(=O)N[C@@H](CCC(N)=O)C(=O)N[C@@H](CCCNC(=N)N)C(N)=O)C(C)C)[C@@H](C)CC
# Target: T1, human GIP receptor
# Test: cell-based or functional assay
Binder,CisBio cAMP agonism % Efficacy,CisBio cAMP antagonism % inhib,CisBio cAMP antagonism IC50,CisBio cAMP antagonism pIC50,DiscoveRx cAMP agonism Emax,DiscoveRx cAMP antagonism IC50,DiscoveRx cAMP antagonism log IC50,DiscoveRx cAMP antagonism % inhib
B1,14%,81%,159 nM,6.8,17,19 nM,-7.7 log M,–
[pGlu]GTFISDYSIAMDRIK([AEEA-AEEA-γGlu-C16 diacid])QQDFVNWLLAQR-NH2 [AT379],0%,95%,21.5 nM,7.7,–,8 nM,-8.1 log M,96%
B2,5%,66%,126 nM,6.9,5,43 nM,-7.4 log M,–
[pGlu]GTFISDYSIAMDRIK([AEEA-AEEA-γGlu-C18 diacid])QQDFVNWLLAQR-NH2 [AT381],5%,74%,13.6 nM,7.9,–,38 nM,-7.4 log M,100%
B3,0%,100%,39.8 nM,7.4,–,12 nM,-7.9 log M,100%
B4,–,–,–,7.9,6,–,-7.7 log M,–
[pGlu]GTFISDYSIAMDRIK(C18 diacid)QQDFVNWLLAQR-NH2 [AT391],0%,95%,271 nM,6.6,–,10 nM,-8 log M,100%
